# Laboratory results reported in article PMC4726468, “Innovation of a Regulatory Mechanism Modulating Semi-determinate Stem Growth through Artificial Selection in Soybean”.
# T1: Dt2-6xHis (soybean; cultivar of the cloned CDS not …, UniProt I1N4Q7 1-253)
# T1 sequence: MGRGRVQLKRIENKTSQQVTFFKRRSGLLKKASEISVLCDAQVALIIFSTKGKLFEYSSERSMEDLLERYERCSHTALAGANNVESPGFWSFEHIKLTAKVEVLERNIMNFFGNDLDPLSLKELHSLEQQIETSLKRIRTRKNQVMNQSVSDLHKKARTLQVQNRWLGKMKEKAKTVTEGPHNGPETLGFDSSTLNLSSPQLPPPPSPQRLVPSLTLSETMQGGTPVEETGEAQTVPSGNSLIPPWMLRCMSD
# B1: Dt1-CArG1 (dsDNA)
# DNA 1: AATATCCAAATTTAGAAATATG
# DNA 2: CATATTTCTAAATTTGGATATT
# B2: Dt1-CArG2 (dsDNA)
# DNA 1: CTTATACCAAAATAAGCAACTAAC
# DNA 2: GTTAGTTGCTTATTTTGGTATAAG
# B3: Dt1-CArG5 (dsDNA)
# DNA 1: TCTTTTACCAATATTGGAACTTGG
# DNA 2: CCAAGTTCCAATATTGGTAAAAGA
# Experiments:
# Dt2-6xHis = biological target: T1, Dt2-6xHis; experiment: EMSA; DIG Gel Shift Kit (Roche 3353591910), manufacturer's instructions; buffer, salt, pH and temperature not stated; conditions: protein: recombinant; tags: 6xHis (pET-DEST42); chain copies: 2; label: digoxigenin; blunt
# GmSOC1-6xHis = GmSOC1-6xHis (soybean; cultivar of the cloned CDS not …, UniProt A0A2K7FY55 1-209); experiment: as above; conditions: protein: recombinant; tags: 6xHis (pET-DEST42); chain copies: 2; label: digoxigenin; blunt
# Chain of GmSOC1-6xHis (A0A2K7FY55 entry or part of it): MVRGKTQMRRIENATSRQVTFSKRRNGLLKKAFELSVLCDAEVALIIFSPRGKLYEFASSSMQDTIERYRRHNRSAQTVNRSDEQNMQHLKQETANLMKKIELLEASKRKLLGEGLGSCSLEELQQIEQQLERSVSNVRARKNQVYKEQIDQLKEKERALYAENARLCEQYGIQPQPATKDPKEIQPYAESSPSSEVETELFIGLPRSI
Binder,binding result (Dt2-6xHis),binding result (GmSOC1-6xHis)
B1,binds,
B2,binds,
B3,binds,binds
